Experimental findings from patent US20050266242A1 are described below.

The target in this test is biotinylated NM^K184C seed (Saccharomyces cerevisiae) (UniProt P05453). The test is described as follows: capture of biotinylated seed (50% w/w) on Streptavidin-coated Dynabeads, SDS wash, scintillation counting.
Sequence of biotinylated NM^K184C seed (Saccharomyces cerevisiae) (P05453 1-253 K184C): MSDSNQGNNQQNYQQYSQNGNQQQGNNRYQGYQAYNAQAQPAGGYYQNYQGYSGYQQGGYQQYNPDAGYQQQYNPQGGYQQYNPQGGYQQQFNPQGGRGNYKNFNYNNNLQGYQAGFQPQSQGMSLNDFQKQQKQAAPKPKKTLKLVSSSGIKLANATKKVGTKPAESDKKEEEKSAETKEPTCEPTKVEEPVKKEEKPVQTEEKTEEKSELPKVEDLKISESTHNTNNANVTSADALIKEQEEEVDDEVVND

Consider “NM^T158C-iodo[1-14C]acetamide (from UniProt P05453 1-253)”, for which the fraction of seed-bound NM soluble in SDS at early time points came out at 50%.
